Laboratory results from patent US20220218805A1.

T1: Linear … (SEQ ID NO: 15) conjugated to BSA
T1 sequence (peptide, conjugated to BSA): CGGGKLDFG


Molecular target: T1, Linear … (SEQ ID NO: 15) conjugated to BSA
Experiment: indirect ELISA, hybridoma supernatant on linear peptide-BSA

OD	Binder
0.075 OD	Ab29 (clone 12D11) (antibody, V domains shown) VH: QIQLVQSGPELKKPGETVKISCKASGYTFTNYGMNWVKQAPGKGLKWMGWINTYSGEPTYVDDFKGRFAFSLETSASTAYLQINNLKNEDMATYFCARSPGAYYTLDYWGQGTSVTVSS VL: DIVMSQSPSSLAVSAGEKVTMSCKSSQSLLNSRTRKNYLAWYQQKPGQSPKLLIYWASTRESGVPDRFTGSGSGTDFTLTISSVQAEDLAVYYCKQSYNLYTFGGGTKLEIK
0.107 OD	Ab21 (clone 2C6) (antibody, V domains shown) VH: EVQLQQSGAELVKPGASVKLSCTASGFNIKDTHMHWVKQRPEQGLEWIGKIDPSNGNTQYDPKFQGKATITADTSSNTAYLQLSSLTSEDTAVYYCATGFAYWGQGTLVTVSA VL: DIQMTQSPASLSASVGETVTITCRASGNIHNYLAWYQQKQGKSPQLLVYNAKTLADGVPSRFSGSGSGTQYSLKINSLQPEDFGSYYCQHFWYTPWTFGGGTKLEIK
